The record followed here is PMC9242648.

Positions count from the first letter of the chain named. Names may count otherwise.

Assay [1] concerns the target human essential light chain (MYL3), P08590. The assay is described as follows: Coomassie SDS-PAGE gel-based light chain loading assay. The note with it: chain shown with the change;; read off a plot.
The target in assay [2] is T1, human regulatory light chain (MYL2), P10916.
T1 chain: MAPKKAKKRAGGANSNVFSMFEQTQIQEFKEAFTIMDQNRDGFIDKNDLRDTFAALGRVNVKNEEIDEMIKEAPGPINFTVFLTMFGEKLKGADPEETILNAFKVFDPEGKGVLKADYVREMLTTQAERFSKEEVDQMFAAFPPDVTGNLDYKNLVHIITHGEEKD
The assay is described as above. The note with it: chain shown with the change;; read off a plot.

Chain of human essential light chain (MYL3), P08590 (P08590 whole entry): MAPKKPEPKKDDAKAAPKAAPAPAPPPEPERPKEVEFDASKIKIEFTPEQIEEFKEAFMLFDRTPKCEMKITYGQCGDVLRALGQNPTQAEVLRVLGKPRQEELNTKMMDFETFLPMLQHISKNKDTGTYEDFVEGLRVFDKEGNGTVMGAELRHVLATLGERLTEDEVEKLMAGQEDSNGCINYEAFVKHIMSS

B1: human β-cardiac myosin 2-hep heavy chain, wild type A797T (protein)
chain: MGDSEMAVFGAAAPYLRKSEKERLEAQTRPFDLKKDVFVPDDKQEFVKAKIVSREGGKVTAETEYGKTVTVKEDQVMQQNPPKFDKIEDMAMLTFLHEPAVLYNLKDRYGSWMIYTYSGLFCVTVNPYKWLPVYTPEVVAAYRGKKRSEAPPHIFSISDNAYQYMLTDRENQSILITGESGAGKTVNTKRVIQYFAVIAAIGDRSKKDQSPGKGTLEDQIIQANPALEAFGNAKTVRNDNSSRFGKFIRIHFGATGKLASADIETYLLEKSRVIFQLKAERDYHIFYQILSNKKPELLDMLLITNNPYDYAFISQGETTVASIDDAEELMATDNAFDVLGFTSEEKNSMYKLTGAIMHFGNMKFKLKQREEQAEPDGTEEADKSAYLMGLNSADLLKGLCHPRVKVGNEYVTKGQNVQQVIYATGALAKAVYERMFNWMVTRINATLETKQPRQYFIGVLDIAGFEIFDFNSFEQLCINFTNEKLQQFFNHHMFVLEQEEYKKEGIEWTFIDFGMDLQACIDLIEKPMGIMSILEEECMFPKATDMTFKAKLFDNHLGKSANFQKPRNIKGKPEAHFSLIHYAGIVDYNIIGWLQKNKDPLNETVVGLYQKSSLKLLSTLFANYAGADAPIEKGKGKAKKGSSFQTVSALHRENLNKLMTNLRSTHPHFVRCIIPNETKSPGVMDNPLVMHQLRCNGVLEGIRICRKGFPNRILYGDFRQRYRILNPAAIPEGQFIDSRKGAEKLLSSLDIDHNQYKFGHTKVFFKAGLLGLLEEMRDERLSRIITRIQAQSRGVLTRMEYKKLLERRDSLLVIQWNIRAFMGVKNWPWMKLYFKIKPLLKSAEREKEMASMKEELEDKVEELLSKNYHLENEVARL
In the case of B1, the ratio to parent in assay [1] was found to be 0.96; in assay [2], 0.97.

B2: human β-cardiac myosin 2-hep heavy chain, wild type S782N (protein)
chain: B1 chain with S782N, T797A
For the molecule B2, the figures for the ratio to parent in assay [1] and in assay [2] were 1.1 and 1.2, respectively.

B3: human β-cardiac myosin 2-hep heavy chain, wild type F834L (protein)
chain: B1 chain with T797A, F834L
For the molecule B3, the ratio to parent in assay [1] came to 1; in assay [2], 1.1.
